This data set is described as follows: yeast display, Sf9 membrane polyspecificity reagent, FACS + sequencing; frameworks hold sequencing errors. The method in brief: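 Polyreactivity labels are assigned by the sorting gate from which each nanobody was recovered. The gates were low and high (top ~1%), set on anti-HA fluorescence for expression and streptavidin fluorescence for reagent binding. Before sorting, galactose-induced (36–48 hours) yeast display cells were stained for 1 hour at 4 °C with 10% biotinylated, detergent-solubilized Sf9 membrane reagent.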
For “QVQLVESGGGLVQAGGSLRLSCAASGRIYVNAMGWYIQAPGKERELVAAIRSGGSTNYADSVKGRFTISRDNAKNTVYLQMNSLKPEDTAVYYCNARRRDYRHWYDYWGQGTQVTVSS”, the “polyreactivity (PSR sort gate)” value is recorded as “high polyreactivity”.
The entry for “QVQLVESGGGLVQAGGSLRLSCAASGRIYWNDMGWYIQAPGKERELVAAISWGGDRTYYADSVKGRFTISRDNAKNTVYLQMNSLKPEDTSVYYCNAPGYLTYDHSYDYWGQGTQVTVSS” is “low polyreactivity”.
With “QVQLVESGGGLVQAGGSLRLSCAASGRIYWNTMGWYRQAPGKERELVASISTGGGRTYYADSVKGRFTISRDNAKNTVYLQMNSLKPEDTAVYYCAVRSYGHGFDYWGQGTQVTVSS”, the “polyreactivity (PSR sort gate)” value is given as “high polyreactivity”.
The entry for “QVQLVESGGGLVQAGGSLRLSCAASGRIYWYYAMGWYRQAPGKERELVATISYGGGNTYYADTVKVRFTISRDNAKNTVYLQMNSLNPEDTAVYYCARVPYAYLPYKPFQQYSYDYWGQGTQVTVSS” is “high polyreactivity”; for “QVQLVESGGGLVQAGGSLRLSCAASGRKLSWNTMGWYRQAPGKETELVACITQNVGSTYYADSVKGRFTISRDNAKNTVYIQMKSLKPEDTAVYYCAAKRLSWHRYGYWGQGTQETVSS” it is “low polyreactivity”; for “QVQLVESGGGLVQAGGSLRLSCAASGRNFAPNAMGWYRQAPGKERELVAAISGSGTSTYYADSVKGRFTISRDNAKNTVYLQMNSLKPEDTAVYYCAKSARGRRGGFDYWGQGTQVTVSS” it is “low polyreactivity”.
The entry for “QVQLVESGGGLVQAGGSLRLSCAASGRNFEIYAMGWYRQAPGKERELVAAISWRGVSTYYADSVKGRFTISRDNAKNTVYLQMNSLKPEDTAVYYCNKDVDYFWYVEYDYWGQGTQVTVSS” is “low polyreactivity”; for “QVQLVESGGGLVQAGGSLRLSCAASGRNFEQYAMGWYRQAPGKERELVAAISGSGGSTFYADSVKGRFTISRDNAKNTVYVQMNRLKPEDTAVYYCNAPGDGYLYDHTYDYWGQGTQVTVSS” it is “low polyreactivity”; for “QVQLVESGGGLVQAGGSLRLSCAASGRNFEVYTMGWYRQAPGTERELVDAIDRSTGSTYYADSVKGRFTISRDNAKNTVYLQMNSLKPEDTAVYDCAARGTFLGTRPLGRFDYWGQGTQVTVSS” it is “low polyreactivity”.
Turning to “QVQLVESGGGLVQAGGSLRLSCAASGRNFFYALGWYRQAPGKERELVASITTSGTSTYYADSVKGRFTISRDNAKNIVYLQMNSLKPEDTAVYYCNATSNSIRWYDLYYWGQGTKVTVSS”, the “polyreactivity (PSR sort gate)” value is “low polyreactivity”.
On to “QVQLVESGGGLVQAGGSLRLSCAASGRNFGYYTMGWYRQAPGKERELVAAITSSGGRTYYADSVKGRFTISRDNAKNTVYLQMNSLIPEVTAVYYCNKVTYGYAYWRYDGYYYWGQGTQVTVSS”, for which the “polyreactivity (PSR sort gate)” value is “low polyreactivity”.
Next, “QVQLVESGGGLVQAGGSLRLSCAASGRNFLSYMGWYRQAPGKERELVAISRSGTSTYYADSVKGRFTISRDNAKNTVYLQMNSLKPEDTAVYYCAAEVLRDGWWGYYYWGQGTQVTVSS”: “high polyreactivity”; “QVQLVESGGGLVQAGGSLRLSCAASGRNFPRNVMGWYRQAPGKERELVAAITGSGSSTYYADSVKGRFTISRDIEKNTVYLQMNSLQPEDTAVYYCATIWRFKLGDYWGQGTQVTVSS”: “high polyreactivity”.
Next, “QVQLVESGGGLVQAGGSLRLSCAASGRNFPVYAMGCYRQAPGKERELVAAMTRSDDSTYYADSVKGRFTISRDNAKNTVYLQMNSLKPEDTAVYYCAADVEGWTVESDVYRVGYDFWGQGTQVTVSS”: “low polyreactivity”; “QVQLVESGGGLVQAGGSLRLSCAASGRNFPYYAMGWSRQAPGKERELVADISSSGGRTYYADSVKGRFTTSRDNAKNTVYLQMNSLKPEDTAVYYCNAESTYYPSGEDYWGQGTQVTVSS”: “low polyreactivity”.
Regarding “QVQLVESGGGLVQAGGSLRLSCAASGRNFRVYAMGWYRQAPGKESELVAAITSGGTTYADSVKGRFTISRDNAKNTGYLQMNSLQPEDTAVYYCAARYYIHRGYDYDYWGQGTQVTVSS”, the “polyreactivity (PSR sort gate)” value was “high polyreactivity”.
For the sequence “QVQLVESGGGLVQAGGSLRLSCAASGRNFSGNTMGWYRQAPGKERELVAAITGRGGSTYYADSVKGRFTISRDNAKNTVYLQMNSLKPEDNAVYYCAALRYTFAGRFDYWGQGTQVTVSS”, the “polyreactivity (PSR sort gate)” value was “high polyreactivity”.
Regarding “QVQLVESGGGLVQAGGSLRLSCAASGRNFYLYAMGWYRPAPGKERELVAAITRRGGSTYYADSVKGRFTISRDNAKNTVYLQMNSLKPEDTAVYYCAADRPGTGYSDYDYWGQGTQVTVSS”, the “polyreactivity (PSR sort gate)” value is given as “high polyreactivity”.
The entry for “QVQLVESGGGLVQAGGSLRLSCAASGRNFYSYSMGWYRQEPGKERELVATITSNDGGTDYADSVKGRFTISRDNAKNTVYLQMNSLKPEDTAVYYCNAEDVLPEVGNRYNYWGQGTQVTVSS” is “low polyreactivity”; for “QVQLVESGGGLVQAGGSLRLSCAASGRNFYYYAMGWYRQAPGKERELVATITGGGRTYYADSVKGRFTISRDNAKNTVYLQMHSLHPEDTAVYYCAAQYGGLSYRYDYWGQGTQVTVSS” it is “high polyreactivity”; for “QVQLVESGGGLVQAGGSLRLSCAASGRPFASYALGWYREAPGKERELVAVITRGVRTYYADSVKGRFTISRDNAKNTVYLQMNSLKPEDTAVYSCAKERYNANYDTSLYDYWGQGTQVTVSS” it is “low polyreactivity”.
As to “QVQLVESGGGLVQAGGSLRLSCAASGRPFGGNTMGWYRQAPGKERALVAAISFSGGSTYYADSVKGRFSSSRDNAKNTVYFQMNSLKPEDTAVYYCARDDYSHSFLTYDYWGQGTQVTVSS”, the “polyreactivity (PSR sort gate)” value is reported as “low polyreactivity”.
The entry for “QVQLVESGGGLVQAGGSLRLSCAASGRPFGRYAMGWYRPAPGKERELVAAITGSGGSTYYADSVKGRYTMSRDNAKNTVYLQMNSLKPEDTAVYYCAAPQRYYYTAMGYWGQGTQVTVSS” is “high polyreactivity”.
For the sequence “QVQLVESGGGLVQAGGSLRLSCAASGRPFRLNGMGWYRQAPGKERELVAAITWSGGRTYYADSVKGRFTISRDNAKTTVYLQMNSLKPEDTAVYDCAADYRYKSHWWYRRFDYWGQGTQVTVSS”, the “polyreactivity (PSR sort gate)” value is recorded as “high polyreactivity”.
In the case of “QVQLVESGGGLVQAGGSLRLSCAASGRSFDVNAMGWYRQAPGKERELVAAISTRGGGTYYADSVKGRFTISRDNAKTTVYLQMNSLKPEDTAVYYCNVVRRYGGRGFDYWGQGTQVTVSS”, the “polyreactivity (PSR sort gate)” value is on record as “low polyreactivity”.
The entry for “QVQLVESGGGLVQAGGSLRLSCAASGRSFDWDVLGWYSQVPGKERELVAAIDDSGGSTYYADSVKGRFTISRDNAKNTVYLQMNSLKPEDTAVYYCAAASYEYALDEHMDYWGQGTQVTGSS” is “low polyreactivity”; for “QVQLVESGGGLVQAGGSLRLSCAASGRSFKKYAMGWYRQAPGKERELVAAITASGGSTYYADSVKGRYTISRDNAKNTVYLQMNSLTPEDTAVYYCAAYAYGVWHSQDGGNYWGQGTQVTVSS” it is “low polyreactivity”.
Next, “QVQLVESGGGLVQAGGSLRLSCAASGRSFSPYAMGWYRQAPGKERELVAAISYDDGITYYADSVKGRFTISRDTAKNTVYLQMNSLKPEDTAVYYCAADSVTRPAGDYWGQGTQVTVSS”: “low polyreactivity”; “QVQLVESGGGLVQAGGSLRLSCAASGRSFSYNAMGWYRQAPGKERELVAAISYGGGRTYYADSVKGRFTISRDNAKNTVYLQMNSLKPEDTAVYYCNRYGRQYDFYYWGQGTQVSVSS”: “high polyreactivity”; “QVQLVESGGGLVQAGGSLRLSCAASGRSFTGNAMGWYRQAPGKERELVAAISWRGARTYYADSVKGRFTISRDNAKNTVYFQMNSLKPVDTGVYYCAAAYRGYARHDYWGQGTQVTVSS”: “high polyreactivity”.
Next, “QVQLVESGGGLVQAGGSLRLSCAASGRSFTGYAMGWYRQATGKERELVASISDSGASTYYADSVKGRFTISRDNAKNTVYLLMNSLKPEDTAVFYCAASYPSYNWSVGDDDYWGQGTQVTVSS”: “low polyreactivity”; “QVQLVESGGGLVQAGGSLRLSCAASGRSFYLYAMGWYRQAPGKERELVASISWNGGSTYYADSVKGRFTISRDNAKNTVYLQMNSLKPEDTAVYYCATDSHRSRLNRPYQLFPAYYYWGQGTQVTVSS”: “low polyreactivity”.
As for “QVQLVESGGGLVQAGGSLRLSCAASGRSFYRYVMGWYRQAPGTERELVAAMTWSGGSTYYADSVKGRFTISRDNAKNTVYLQMNSLKPEDTAVYYCAADWSTWGVDYWGQGTQVTVSS”, the “polyreactivity (PSR sort gate)” value is on record as “low polyreactivity”.
As for “QVQLVESGGGLVQAGGSLRLSCAASGRSIKYYAMGWYRQAPGKERELVAAIRSTGGSTYYADSVKGRFTISRDNAKNTVYLQMNSLKPEDTAVYYCNARRYPRYVFSRYVYWGQGTQVNVSS”, the “polyreactivity (PSR sort gate)” value was “high polyreactivity”.
Next, “QVQLVESGGGLVQAGGSLRLSCAASGRTCGGYAMGWYRQEPGNERELVAAISYRGARTYYADSVKGRFTISRDNAKNTVYLQMNSRKPEDTAVYYCAASRPGLRTPGQMGYWGQGTQVTVSS”: “high polyreactivity”.
Next, “QVQLVESGGGLVQAGGSLRLSCAASGRTCRRYTIGWYRQAPGKERELVAAITSGGRTNYADSVKGRFTISRDNAKNTVYLQMNSLKPEDTAVYYCNAQNEIWRVTFSPYDRWGYDYWGQGTQVTVSS”: “low polyreactivity”.
Next, “QVQLVESGGGLVQAGGSLRLSCAASGRTFAANTMGWYRQAPGKERELVAAINSGGSTYYADSVKGRFTISRDNAKNTVYLHMNSLKPEATAVYYCAVSWWEVPRIFGYSSRYDYWGQGTQVTVSS”: “high polyreactivity”.
As to “QVQLVESGGGLVQAGGSLRLSCAASGRTFAAYAMGWYIQSPGKERELVAAISSTSGNTYYADSVKGRFTISRDNAKNTVYLQMNSLKPEDTAVYYCNAQRRFNANYWYDYWGQGTQVTVSS”, the “polyreactivity (PSR sort gate)” value is “high polyreactivity”.
The entry for “QVQLVESGGGLVQAGGSLRLSCAASGRTFAAYAMGWYRQAPGKEREFVADITYSGGSTTYADSVKGRFTISRDNAKNTVYLLMNSLNPEDTAVYYCNKLAYTPGWRGFVWYDYWGQGTQVSVSS” is “low polyreactivity”; for “QVQLVESGGGLVQAGGSLRLSCAASGRTFAFNAMGRYRQAPGKEMELVAAISRSGGSTYYADSVKGRFTISRDNAKNTVYLQMNSLKPEDTAVYYCNAYYNRYPGYDYWGQGTQVTVSS” it is “high polyreactivity”.

These data come from the nanobody polyreactivity screen of Harvey et al. (2022).
